Assay results taken from ChEMBL document CHEMBL3826949, “Characterization of the action of tyrosinase on resorcinols” (Bioorg Med Chem, 2016).
Activity calls are given as the source filed them. No cut-off for these calls is given here.

Key:
Tyrosinase [1] = target: T1, Tyrosinase (Agaricus bisporus, UniProt O42713); assay: Inhibition of mushroom tyrosinase using L-tyrosine as substrate assessed as monophenolase activity by spectrophotometric analysis
T1 sequence (O42713 whole entry): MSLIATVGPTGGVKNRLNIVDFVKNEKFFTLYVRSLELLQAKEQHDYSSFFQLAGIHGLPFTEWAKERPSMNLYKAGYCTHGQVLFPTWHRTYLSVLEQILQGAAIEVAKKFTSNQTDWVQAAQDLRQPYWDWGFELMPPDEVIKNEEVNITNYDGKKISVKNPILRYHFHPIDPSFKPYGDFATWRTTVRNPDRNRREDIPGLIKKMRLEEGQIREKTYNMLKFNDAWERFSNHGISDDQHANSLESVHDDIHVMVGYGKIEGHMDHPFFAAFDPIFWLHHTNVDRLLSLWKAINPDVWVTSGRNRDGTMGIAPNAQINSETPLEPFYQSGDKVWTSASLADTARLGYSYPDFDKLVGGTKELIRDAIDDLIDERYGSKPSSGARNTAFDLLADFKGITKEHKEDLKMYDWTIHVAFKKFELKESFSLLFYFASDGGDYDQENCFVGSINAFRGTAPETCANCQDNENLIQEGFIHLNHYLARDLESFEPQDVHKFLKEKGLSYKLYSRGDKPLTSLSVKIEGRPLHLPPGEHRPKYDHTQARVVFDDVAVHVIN

Tyrosinase [2] = target: T1, Tyrosinase; assay: Inhibition of mushroom tyrosinase using L-dopa as substrate assessed as diphenolase activity by spectrophotometric analysis
[3] = target: T2, Tyrosinase (Agaricus bisporus) (UniProt O42713); assay: Substrate activity at mushroom tyrosinase using TBC as substrate assessed as increase in TBC oxidation at 0.05 to 0.50 mM by spectrophotometric analysis
T2 sequence (whole entry): T1 sequence (O42713 whole entry)

[4] = target: T2, Tyrosinase (Agaricus bisporus); assay: Activity of mushroom tyrosinase using TBC as substrate assessed as accumulation of p-quinone in presence of H2O2 spectrophotometric analysis
[5] = target: T2, Tyrosinase (Agaricus bisporus); assay: Inactivation of mushroom tyrosinase using TBC as substrate assessed as reduction in p-quinone accumulation pre-incubated at 0.3 mM for shorter time duration during 0 to 500 secs by spectrophotometric analysis
[6] = target: T2, Tyrosinase (Agaricus bisporus); assay: Inactivation of mushroom tyrosinase using TBC as substrate assessed as reduction in p-quinone accumulation pre-incubated at 0.3 mM for longer time duration during 0 to 500 secs by spectrophotometric analysis
[7] = target: T2, Tyrosinase (Agaricus bisporus); settings: 30 uM
Description: Inhibition of mushroom tyrosinase activity using TBC as substrate assessed as recovery of enzyme activity at 30 uM preincubated for 60 mins

[8] = substrate: CCOc1ccc(O)cc1; assay: (§1) Substrate activity at mushroom tyrosinase assessed as Km for monophenolase activity in presence H2O2 by spectrophotometry based Michaelis-Menten plot analysis; settings: Agaricus bisporus
[9] = substrate: CCc1ccc(O)cc1O; assay: as §1; settings: Agaricus bisporus
[10] = substrate: COc1ccc(O)cc1; assay: as §1; settings: Agaricus bisporus
[11] = substrate: Cc1c(O)cccc1O; assay: as §1; settings: Agaricus bisporus
[12] = substrate: Cc1ccc(O)cc1O; assay: as §1; settings: Agaricus bisporus
[13] = substrate: N[C@@H](Cc1ccc(O)cc1)C(=O)O; assay: as §1; settings: Agaricus bisporus
[14] = substrate: Oc1ccc(O)cc1; assay: as §1; settings: Agaricus bisporus
[15] = substrate: Oc1cccc(O)c1; assay: as §1; settings: Agaricus bisporus
[16] = substrate: Oc1ccccc1; assay: as §1; settings: Agaricus bisporus
[17] = substrate: CCOc1ccc(O)cc1; assay: (§2) Substrate activity at mushroom tyrosinase assessed as Kcat for monophenolase activity in presence H2O2 by spectrophotometry based Michaelis-Menten plot analysis; settings: Agaricus bisporus
[18] = substrate: CCc1ccc(O)cc1O; assay: as §2; settings: Agaricus bisporus
[19] = substrate: COc1ccc(O)cc1; assay: as §2; settings: Agaricus bisporus
[20] = substrate: Cc1c(O)cccc1O; assay: as §2; settings: Agaricus bisporus
[21] = substrate: Cc1ccc(O)cc1O; assay: as §2; settings: Agaricus bisporus
[22] = substrate: N[C@@H](Cc1ccc(O)cc1)C(=O)O; assay: as §2; settings: Agaricus bisporus
[23] = substrate: Oc1ccc(O)cc1; assay: as §2; settings: Agaricus bisporus
[24] = substrate: Oc1cccc(O)c1; assay: as §2; settings: Agaricus bisporus
[25] = substrate: Oc1ccccc1; assay: as §2; settings: Agaricus bisporus
[26] = substrate: CCOc1ccc(O)cc1; assay: (§3) Substrate activity at mushroom tyrosinase assessed as Kcat/Km ratio for monophenolase activity in presence H2O2 by spectrophotometry based Michaelis-Menten plot analysis; settings: Agaricus bisporus
[27] = substrate: CCc1ccc(O)cc1O; assay: as §3; settings: Agaricus bisporus
[28] = substrate: COc1ccc(O)cc1; assay: as §3; settings: Agaricus bisporus
[29] = substrate: Cc1c(O)cccc1O; assay: as §3; settings: Agaricus bisporus
[30] = substrate: Cc1ccc(O)cc1O; assay: as §3; settings: Agaricus bisporus
[31] = substrate: N[C@@H](Cc1ccc(O)cc1)C(=O)O; assay: as §3; settings: Agaricus bisporus
[32] = substrate: Oc1ccc(O)cc1; assay: as §3; settings: Agaricus bisporus
[33] = substrate: Oc1cccc(O)c1; assay: as §3; settings: Agaricus bisporus
[34] = substrate: Oc1ccccc1; assay: as §3; settings: Agaricus bisporus

With `Oc1cccc(O)c1` [RESORCINOL] the IC50 (Tyrosinase [1]) was 1130 µM, the IC50 (Tyrosinase [2]) was 652 µM and the Activity [3] was “Active”. The Activity [4] was “Active”, the inhibition [5] was “Active” and the inhibition [6] was “inactive”.

With `Cc1ccc(O)cc1O` the IC50 (Tyrosinase [1]) was 9.31 µM, the IC50 (Tyrosinase [2]) was 3.3 µM and the Activity [4] was “Active”. For the same molecule, the inhibition [5] was “Active” and the inhibition [6] was “inactive”.

`CCc1ccc(O)cc1O` was tested, and the IC50 (Tyrosinase [1]) was 1.9 µM, the IC50 (Tyrosinase [2]) was 1.1 µM and the Activity [3] was “Active”. For the same molecule, the Activity [4] was “Active”, the inhibition [5] was “Active” and the inhibition [6] was “inactive”. For the same molecule, the inhibition [7] was “inactive”.

In the case of `Cc1c(O)cccc1O`, the IC50 (Tyrosinase [1]) is reported as 1420 µM, the IC50 (Tyrosinase [2]) is reported as 717 µM and the Activity [3] is reported as “Active”. For the same molecule, the Activity [4] was “Active”.

B1: Tyrosinase (Agaricus bisporus), O42713 (protein)
chain: T1 sequence (O42713 whole entry)
In the case of B1, the Km [8] is reported as 170 µM, the Km [9] is reported as 117 µM and the Km [10] is reported as 80 µM. The Km [11] was 2700 µM, the Km [12] was 203 µM and the Km [13] was 210 µM. It also gave a Km [14] of 920 µM, a Km [15] of 460 µM and a Km [16] of 700 µM. The kcat [17] was 132 s⁻¹, the kcat [18] was 6 s⁻¹ and the kcat [19] was 184 s⁻¹. The kcat [20] was 9.94 s⁻¹, the kcat [21] was 7.73 s⁻¹ and the kcat [22] was 7.9 s⁻¹. For the same molecule, the kcat [23] was 102 s⁻¹, the kcat [24] was 18.3 s⁻¹ and the kcat [25] was 12.7 s⁻¹. For the same molecule, the kcat/Km [26] was 776000 M⁻¹ s⁻¹, the kcat/Km [27] was 51300 M⁻¹ s⁻¹ and the kcat/Km [28] was 2.3e+06 M⁻¹ s⁻¹. For the same molecule, the kcat/Km [29] was 3700 M⁻¹ s⁻¹, the kcat/Km [30] was 38100 M⁻¹ s⁻¹ and the kcat/Km [31] was 37600 M⁻¹ s⁻¹. The kcat/Km [32] was 110000 M⁻¹ s⁻¹, the kcat/Km [33] was 39900 M⁻¹ s⁻¹ and the kcat/Km [34] was 18100 M⁻¹ s⁻¹.
